Source: publication PMC11028011

Each substance was assayed against neonatal Fc receptor (FcRn) protein, immobilized on a column (UniProt P55899) (assay: FcRn affinity chromatography; FcRn immobilised on an affinity column (Roche); 30 µg antibody in 20 mM MES, 140 mM NaCl pH 5.5; 10 min at 20% buffer B (20 mM Tris, 140 mM NaCl pH 8.8), then 20-100% buffer B over 80 min; 0.5 mL/min).
UniProt P55899, sequence (P55899 24-297): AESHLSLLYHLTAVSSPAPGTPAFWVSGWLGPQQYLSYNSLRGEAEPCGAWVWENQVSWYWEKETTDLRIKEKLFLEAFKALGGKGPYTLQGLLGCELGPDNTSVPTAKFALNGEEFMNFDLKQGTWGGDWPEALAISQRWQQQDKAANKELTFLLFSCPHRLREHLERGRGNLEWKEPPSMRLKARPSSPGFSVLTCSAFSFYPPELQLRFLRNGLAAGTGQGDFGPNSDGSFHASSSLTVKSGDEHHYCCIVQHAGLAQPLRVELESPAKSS

Row | FcRn ret. time [min] | Substance
1 | 46.4 | Bapi (control), control variant without mutations (antibody)
2 | 46.4 | Bapi-Fab8D3 (bispecific bapineuzumab IgG1, knobs-into-holes, with a single-chain Fab of the TfR antibody 8D3 on the C-terminus of one heavy chain; L234A, L235A, P329G) (bispecific antibody)
3 | 46.4 | Bapi (monospecific bapineuzumab IgG with effector function reducing mutations L234A, L235A, P329G) (antibody)
